Laboratory results as given in publication PMC6436938.

Legend:
[1] = molecular target: Impβ labeled with fluorescent Alexa 488 dye (human) (UniProt Q14974); experiment: native gel or EMSA
[2] = molecular target: Impβ6M labeled with fluorescent Alexa 488 dye (human) (UniProt Q14974); experiment: native gel or EMSA
Sequence of Impβ6M labeled with fluorescent Alexa 488 dye (human) (Q14974 whole entry L174S/T175A/I178D/E214A/F217A/I218D): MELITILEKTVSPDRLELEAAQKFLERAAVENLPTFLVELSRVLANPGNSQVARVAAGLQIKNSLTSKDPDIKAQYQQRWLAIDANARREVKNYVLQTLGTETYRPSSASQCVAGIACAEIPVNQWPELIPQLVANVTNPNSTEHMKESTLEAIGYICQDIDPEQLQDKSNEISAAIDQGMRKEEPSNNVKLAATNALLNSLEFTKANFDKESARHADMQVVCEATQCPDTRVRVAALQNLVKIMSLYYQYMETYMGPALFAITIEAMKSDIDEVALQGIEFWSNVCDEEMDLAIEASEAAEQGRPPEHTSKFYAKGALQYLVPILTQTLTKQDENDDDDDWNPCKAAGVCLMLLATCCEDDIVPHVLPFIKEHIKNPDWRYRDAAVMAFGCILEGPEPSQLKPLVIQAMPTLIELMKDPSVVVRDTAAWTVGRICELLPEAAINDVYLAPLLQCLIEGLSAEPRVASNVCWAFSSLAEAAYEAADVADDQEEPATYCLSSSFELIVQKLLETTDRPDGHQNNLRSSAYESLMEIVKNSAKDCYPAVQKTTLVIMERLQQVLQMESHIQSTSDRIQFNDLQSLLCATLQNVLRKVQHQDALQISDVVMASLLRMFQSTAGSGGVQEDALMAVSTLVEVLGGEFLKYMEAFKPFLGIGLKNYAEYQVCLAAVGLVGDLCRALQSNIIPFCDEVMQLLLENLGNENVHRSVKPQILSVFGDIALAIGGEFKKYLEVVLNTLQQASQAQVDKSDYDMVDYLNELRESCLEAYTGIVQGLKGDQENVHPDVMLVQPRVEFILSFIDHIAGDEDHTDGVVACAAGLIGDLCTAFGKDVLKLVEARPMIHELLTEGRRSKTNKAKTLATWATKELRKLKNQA

Sequence of Impβ labeled with fluorescent Alexa 488 dye (human) (Q14974 whole entry): as the sequence (Q14974 whole entry L174S/T175A/I178D/E214A/F217A/I218D) above, with S174L, A175T, D178I, A214E, A217F, D218I counted along it

Substance	Kd [1]	Kd [2]
Imp7 F1028S and F1030S (natural protein)	2.89 µM	
importin α (Impα, Kapα) (from UniProt P52292 1-529) (natural protein)	0.62 µM	3.34 µM
Imp7 F1019S (natural protein)	1.22 µM	
Impα F527S/F529S (from UniProt P52292 1-529) (natural protein)	0.92 µM	
